Our source for the koff values is US20220127633A1.

For assay [1], the target named is TIR1 receptor protein with 6 His, maltose-binding protein (MBP) and FLAG affinity tags, expressed in insect cell culture using a recombinant baculovirus (UniProt Q570C0). Nature of the assay: SPR; with 2,4-D.
For assay [2] the target is unchanged. Nature of the assay: SPR; with dicamba.
Assay [3] has the same target. Nature of the assay: SPR; with IAA (auxin).

“biotinylated Sisymbrium orientale IAA2 wild-type degron peptide”: the figures for the koff in assay [1], in assay [2] and in assay [3] were 1.93E-03 ?, 3.29E-02 ? and 2.08E-04 ?, respectively.
The like results for “biotinylated Sisymbrium orientale IAA2Δ27 degron peptide (9 amino acid deletion in the degron tail)” were, in that order, 2.71E-03 ?, 4.04E-02 ? and 5.01E-04 ?.
